Experimental data from the supplement of paper PMC10126150.
± gives the standard deviation of the averaged measurements.

Tested on: ATP
Test: switch fluorescence ratio, 500 uM ATP over buffer (Cy3 cluster intensity, sum of 5 cycles each) (fold (ratio)); higher = stronger signal-on switching upon ATP binding; sequences stand for … in TCGTCGGCAGCGTCAGATGTGTATAAGAGACAGTTTTTTTTTTTTTTTTTTTTTTTTT…TC
Settings: aptamer strand: ATP DNA aptamer (quencher-CACCTGGGGGAGTATTGCGGAGGAAGG + anchor), 100 nM annealed; ATP concentration: 500 uM
Summary of the method: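 Between each of five buffer/ATP cycles, the flow-cell was stripped with NaOH and re-annealed. Each cycle imaged Cy3-labelled switching-strand clusters, annealed to 100 nM quencher-labelled ATP aptamer on a modified Illumina MiSeq flow-cell, first in selection buffer and then after 15 min with 500 uM ATP at 22 °C. The fluorescence ratio is summed target-cycle over summed buffer-cycle Cy3 intensity per cluster, averaged per switch-domain sequence, with clusters outside 100-1000 RFU excluded.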
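Note: ATP exposure 15 min at 22 °C before imaging.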

| Sequence | switch fluorescence ratio |
| --- | --- |
| ACTCTGCCGG | 1.2 ± 0.048 |
| ACTCTGTGC | 1.21 ± 0.032 |
| ACTCTTGCTT | 1.072 ± 0.0046 |
| ACTGAAGTTA | 0.98 ± 0.018 |
| ACTGACCCCC | 1.58 ± 0.14 |
| ACTGAGACGA | 1.07 ± 0.044 |
| ACTGAGGATA | 1 ± 0.037 |
| ACTGAGGCTA | 1.07 ± 0.011 |
| ACTGATCTGA | 0.987 ± 0.04 |
| ACTGCCTTCA | 1.52 ± 0.12 |
| ACTGCGGGAC | 1.51 ± 0.69 |
| ACTGCGTGAT | 1.05 ± 0.022 |
| ACTGCTGAAT | 0.99 ± 0.045 |
| ACTGCTGTTT | 0.9834 ± 0.0026 |
| ACTGGAAGTG | 1.03 ± 0.0039 |
| ACTGGACTGT | 1.18 ± 0.026 |
| ACTGGAGGTG | 1.067 ± 0.0038 |
| ACTGGATCCA | 1.01 ± 0.013 |
| ACTGGGCTGT | 1.06 ± 0.062 |
| ACTGGGGGCG | 1.03 ± 0.053 |
| ACTGGGGTCT | 1.01 ± 0.026 |
| ACTGGGGTGT | 1.07 ± 0.0045 |
| ACTGGGTAGA | 1.0278 ± 0.00073 |
| ACTGGGTGAG | 1.02 ± 0.023 |
| ACTGGGTTTT | 1.022 ± 0.0022 |

| Sequence | switch fluorescence ratio |
| --- | --- |
| ACTGGTATAA | 0.989 ± 0.015 |
| ACTGGTGGTG | 0.97817 ± 0.0005 |
| ACTGGTGTTC | 1.019 ± 0.0094 |
| ACTGTAATCC | 1.16 ± 0.046 |
| ACTGTACACC | 1.46 ± 0.026 |
| ACTGTACCGG | 1.45 ± 0.04 |
| ACTGTGGACA | 1.02 ± 0.016 |
| ACTGTGTACA | 0.9824 ± 0.0024 |
| ACTGTGTTTG | 0.991 ± 0.036 |
| ACTGTTCTCG | 1.01 ± 0.046 |
| ACTGTTTTGA | 0.962 ± 0.01 |
| ACTGTTTTTA | 0.9849 ± 0.004 |
| ACTTAAGTTT | 1.01 ± 0.07 |
| ACTTAATGGG | 1.034 ± 0.0014 |
| ACTTACAGGG | 1.171 ± 0.0058 |
| ACTTACTATC | 1.193 ± 0.0046 |
| ACTTACTTT | 1.16 ± 0.021 |
| ACTTAGCGGT | 1.07 ± 0.051 |
| ACTTAGGAGA | 1.01 ± 0.048 |
| ACTTAGGTTG | 1.04 ± 0.017 |
| ACTTATATA | 1.02 ± 0.022 |
| ACTTCAGCGG | 1.07 ± 0.015 |
| ACTTCATTTT | 1.02 ± 0.012 |
| ACTTGAGGGT | 1.05 ± 0.094 |
| ACTTGATCGC | 1.03 ± 0.03 |

| Sequence | switch fluorescence ratio |
| --- | --- |
| ACTTGGACAT | 1.04 ± 0.018 |
| ACTTGGACGT | 1.05 ± 0.048 |
| ACTTGGCACA | 1.08 ± 0.054 |
| ACTTGGGATG | 0.982 ± 0.037 |
| ACTTGGTACT | 1.02 ± 0.018 |
| ACTTGGTTGT | 0.992 ± 0.013 |
| ACTTGTTTCG | 0.961 ± 0.037 |
| ACTTGTTTGG | 1.01 ± 0.023 |
| ACTTTAGGGT | 1.15 ± 0.12 |
| ACTTTAGTTA | 0.9756 ± 0.0025 |
| ACTTTATTCT | 1.04 ± 0.02 |
| ACTTTCTAGC | 1.07 ± 0.029 |
| ACTTTGGGCG | 0.932 ± 0.059 |
| ACTTTGGTTT | 0.993 ± 0.031 |
| ACTTTGTACG | 1.06 ± 0.011 |
| ACTTTGTATT | 0.999 ± 0.013 |
| ACTTTTTCGG | 0.9909 ± 0.006 |
| ACTTTTTGAG | 0.996 ± 0.032 |
| ACTTTTTTGA | 1.005 ± 0.0056 |
| ACTTTTTTTA | 1.022 ± 0.01 |
| AGAAAAAATT | 1 ± 0.017 |
| AGAAAAAGGA | 1.01 ± 0.044 |
| AGAAAAGGGC | 1.026 ± 0.0014 |
| AGAAAATAGT | 1.03 ± 0.032 |
| AGAAAGCCGG | 0.989 ± 0.014 |

| Sequence | switch fluorescence ratio |
| --- | --- |
| AGAAAGGATG | 1.01 ± 0.032 |
| AGAAAGGGGG | 0.9954 ± 0.0038 |
| AGAAAGTTTT | 0.993 ± 0.025 |
| AGAAATGGGA | 0.987 ± 0.012 |
| AGAAATGTTA | 1.024 ± 0.0063 |
| AGAAATTTTT | 0.998 ± 0.016 |
| AGAACCATCG | 1.05 ± 0.016 |
| AGAACCTAGT | 0.996 ± 0.031 |
| AGAACCTCTT | 1.06 ± 0.033 |
| AGAACGAAGG | 0.962 ± 0.015 |
| AGAACGGGGC | 1.02 ± 0.023 |
| AGAACTAGGG | 0.974 ± 0.016 |
| AGAAGAAATC | 1.016 ± 0.008 |
| AGAAGAGGGG | 0.987 ± 0.044 |
| AGAAGCAGG | 1.21 ± 0.26 |
| AGAAGCGACA | 0.994 ± 0.032 |
| AGAAGCTAGT | 0.983 ± 0.044 |
| AGAAGGCTGC | 0.978 ± 0.0071 |
| AGAAGGGACG | 0.973 ± 0.021 |
| AGAAGGGATT | 1.03 ± 0.015 |
| AGAAGTACGC | 1.17 ± 0.1 |
| AGAAGTCGTG | 1.02 ± 0.012 |
| AGAAGTGAGC | 0.978 ± 0.038 |
| AGAAGTTGGA | 1 ± 0.05 |
| AGAAGTTGGT | 1 ± 0.023 |

| Sequence | switch fluorescence ratio |
| --- | --- |
| AGAAGTTTGG | 0.989 ± 0.012 |
| AGAATAATAG | 1.02 ± 0.026 |
| AGAATACGGA | 1.05 ± 0.018 |
| AGAATAGAGT | 0.97 ± 0.038 |
| AGAATAGGGG | 0.9762 ± 0.0083 |
| AGAATAGGGT | 0.9901 ± 0.0072 |
| AGAATAGTGG | 0.96 ± 0.037 |
| AGAATCAGCA | 1.01 ± 0.019 |
| AGAATCCTG | 0.995 ± 0.043 |
| AGAATGAGGT | 0.98 ± 0.03 |
| AGAATGGCAG | 0.991 ± 0.029 |
| AGAATGTAAT | 0.9591 ± 0.0014 |
| AGAATGTATG | 0.994 ± 0.021 |
| AGAATGTTGC | 0.9482 ± 0.0035 |
| AGAATTGAGA | 0.971 ± 0.019 |
| AGAATTTTTG | 0.963 ± 0.075 |
| AGACAACGGC | 1.02 ± 0.03 |
| AGACAAGTGG | 0.957 ± 0.026 |
| AGACACCCCT | 1.17 ± 0.073 |
| AGACAGGAGA | 0.985 ± 0.019 |
| AGACAGTTGG | 0.99 ± 0.025 |
| AGACATGGGT | 1.02 ± 0.033 |
| AGACCGCTTA | 1.15 ± 0.036 |
| AGACGGAATT | 1.049 ± 0.0063 |
| AGACGGGGCT | 0.975 ± 0.017 |

| Sequence | switch fluorescence ratio |
| --- | --- |
| AGACGGTCGG | 0.975 ± 0.016 |
| AGACGGTCTG | 0.973 ± 0.0098 |
| AGACGTGCAG | 1.022 ± 0.006 |
| AGACGTGCGT | 1.01 ± 0.048 |
| AGACTCGGGT | 1.02 ± 0.0013 |
| AGACTGAGTT | 0.984 ± 0.016 |
| AGACTGCTGG | 0.977 ± 0.018 |
| AGACTGGAGC | 1.06 ± 0.026 |
| AGACTGTCGA | 1 ± 0.012 |
| AGAGAAAGTA | 0.98799 ± 0.0004 |
| AGAGAAGACC | 1 ± 0.028 |
| AGAGACAGGG | 1.05 ± 0.032 |
| AGAGACCAGC | 1.07 ± 0.028 |
| AGAGACCTCA | 1.045 ± 0.0027 |
| AGAGACGGGG | 1.02 ± 0.013 |
| AGAGAGACAG | 0.97 ± 0.057 |
| AGAGAGGGTT | 0.986 ± 0.019 |
| AGAGATATTT | 0.992 ± 0.029 |
| AGAGATGTTG | 0.993 ± 0.045 |
| AGAGCAAGGT | 1.08 ± 0.035 |
| AGAGCCTGGG | 1.04 ± 0.02 |
| AGAGCGGTTC | 1.06 ± 0.11 |
| AGAGCGTTCG | 0.998 ± 0.042 |
| AGAGCTGGGG | 0.9849 ± 0.0079 |
| AGAGGAGGGT | 1.01 ± 0.017 |

| Sequence | switch fluorescence ratio |
| --- | --- |
| AGAGGGAACA | 1.01 ± 0.02 |
| AGAGGGAGTA | 1 ± 0.022 |
| AGAGGGATAG | 1.19 ± 0.37 |
| AGAGGGCATG | 0.987 ± 0.026 |
| AGAGGGCTTT | 0.988 ± 0.032 |
| AGAGGGGAGT | 1.021 ± 0.0016 |
| AGAGGGGATG | 1.02 ± 0.0081 |
| AGAGGGGCCA | 1.01 ± 0.048 |
| AGAGGGGTTT | 0.98 ± 0.03 |
| AGAGGTAAGA | 0.9911 ± 0.0084 |
| AGAGGTACAC | 1 ± 0.021 |
| AGAGGTTACG | 0.994 ± 0.046 |
| AGAGGTTAGG | 0.9874 ± 0.0033 |
| AGAGGTTGGG | 0.98 ± 0.04 |
| AGAGGTTTTT | 0.989 ± 0.019 |
| AGAGTACTCG | 1.05 ± 0.0048 |
| AGAGTACTGG | 1.01 ± 0.01 |
| AGAGTATTGC | 1.04 ± 0.16 |
| AGAGTCAGGC | 1.07 ± 0.044 |
| AGAGTCATGG | 1 ± 0.013 |
| AGAGTCTATC | 0.972 ± 0.044 |
| AGAGTGACGA | 1.008 ± 0.0061 |
| AGAGTGCTAC | 1.04 ± 0.027 |
| AGAGTGGTAG | 0.99 ± 0.013 |
| AGAGTGGTCA | 0.988 ± 0.018 |

| Sequence | switch fluorescence ratio |
| --- | --- |
| AGAGTTGTGA | 1.02 ± 0.012 |
| AGAGTTTTTT | 0.998 ± 0.018 |
| AGATAAACTC | 1.03 ± 0.051 |
| AGATATGTTG | 0.996 ± 0.012 |
| AGATCAGGAT | 1.02 ± 0.012 |
| AGATCCATTT | 0.991 ± 0.055 |
| AGATCGCTTT | 1.02 ± 0.029 |
| AGATCGTGAG | 0.97 ± 0.038 |
| AGATCGTTTT | 0.999 ± 0.012 |
| AGATCTATTG | 1.03 ± 0.033 |
| AGATCTGCAT | 1.11 ± 0.019 |
| AGATGACGGG | 0.975 ± 0.033 |
| AGATGAGGGT | 1 ± 0.02 |
| AGATGATGGG | 0.99 ± 0.017 |
| AGATGCCTGA | 0.989 ± 0.035 |
| AGATGGATTA | 1.025 ± 0.0024 |
| AGATGGCATT | 1 ± 0.048 |
| AGATGGGTAT | 0.986 ± 0.011 |
| AGATGTACTA | 1.04 ± 0.043 |
| AGATGTGTCT | 1.02 ± 0.003 |
| AGATGTTCGG | 0.975 ± 0.025 |
| AGATTAGGAC | 0.97145 ± 0.00024 |
| AGATTATAGC | 1.02 ± 0.045 |
| AGATTATGCA | 1.01 ± 0.048 |
| AGATTCATCA | 0.9931 ± 0.0055 |
